Measured values taken from patent US20180179296A1.

Columns and labels:
[1] = biological target: Design 14 L1: D3H44 light chain Q124E_Q160E_T178D (humanized); assay: light chain competition assay: heavy chain co-expressed with L1 and L2, SPR read-out of light-chain tags; competitor Design 14 L2
[2] = biological target: Design 14 L2: D3H44 light chain Q124R_Q160K_T178R (humanized); assay: light chain competition assay: heavy chain co-expressed with L1 and L2, SPR read-out of light-chain tags; competitor Design 14 L1
[3] = biological target: Design 30 L1: D3H44 light chain Q124E_Q160E_T180E (humanized); assay: light chain competition assay: heavy chain co-expressed with L1 and L2, SPR read-out of light-chain tags; competitor Design 30 L2
[4] = biological target: Design 30 L2: D3H44 light chain Q160K_T178R (humanized); assay: light chain competition assay: heavy chain co-expressed with L1 and L2, SPR read-out of light-chain tags; competitor Design 30 L1
[5] = biological target: Design 31 L1: D3H44 light chain Q38R_L135W (humanized); assay: light chain competition assay: heavy chain co-expressed with L1 and L2, SPR read-out of light-chain tags; competitor Design 31 L2
[6] = biological target: Design 31 L2: D3H44 light chain Q38D_F116A_L135A (humanized); assay: light chain competition assay: heavy chain co-expressed with L1 and L2, SPR read-out of light-chain tags; competitor Design 31 L1
[7] = biological target: Design 32 L1: D3H44 light chain Q38R (humanized); assay: light chain competition assay: heavy chain co-expressed with L1 and L2, SPR read-out of light-chain tags; competitor Design 32 L2
[8] = biological target: Design 32 L2: D3H44 light chain Q38E_F98W (humanized); assay: light chain competition assay: heavy chain co-expressed with L1 and L2, SPR read-out of light-chain tags; competitor Design 32 L1
[9] = biological target: Design 15 L2: D3H44 light chain Q160K_T178R (humanized); assay: light chain competition assay: heavy chain co-expressed with L1 and L2, SPR read-out of light-chain tags; competitor Design 15 L1
[10] = biological target: Design 15 L1: D3H44 light chain Q124E_Q160E_T178D (humanized); assay: light chain competition assay: heavy chain co-expressed with L1 and L2, SPR read-out of light-chain tags; competitor Design 15 L2
[11] = biological target: tissue factor extracellular domains (human) (UniProt P13726); assay: SPR (ProteOn XPR36), TF immobilised, heterodimer as analyte, 1:1 model
[12] = biological target: Design 11 L1: D3H44 light chain V133S (humanized); assay: light chain competition assay: heavy chain co-expressed with L1 and L2, SPR read-out of light-chain tags; competitor Design 11 L2
[13] = biological target: Design 11 L2: D3H44 light chain S176L (humanized); assay: light chain competition assay: heavy chain co-expressed with L1 and L2, SPR read-out of light-chain tags; competitor Design 11 L1
[14] = biological target: Design 29 L2: D3H44 light chain Q124R (humanized); assay: light chain competition assay: heavy chain co-expressed with L1 and L2, SPR read-out of light-chain tags; competitor Design 29 L1
[15] = biological target: Design 29 L1: D3H44 light chain Q124E_V133D (humanized); assay: light chain competition assay: heavy chain co-expressed with L1 and L2, SPR read-out of light-chain tags; competitor Design 29 L2
[16] = biological target: Design 27 L2: D3H44 light chain F118W_Q124E_V133S_S176A_T178S_T180E (humanized); assay: light chain competition assay: heavy chain co-expressed with L1 and L2, SPR read-out of light-chain tags; competitor Design 27 L1
[17] = biological target: Design 27 L1: D3H44 light chain F116A_V133G_S176F_T178A (humanized); assay: light chain competition assay: heavy chain co-expressed with L1 and L2, SPR read-out of light-chain tags; competitor Design 27 L2
[18] = biological target: Design 13 L1: D3H44 light chain Q124E_V133W_Q160E_T180E (humanized); assay: light chain competition assay: heavy chain co-expressed with L1 and L2, SPR read-out of light-chain tags; competitor Design 13 L2
[19] = biological target: Design 13 L2: D3H44 light chain V133A_Q160K_T178R (humanized); assay: light chain competition assay: heavy chain co-expressed with L1 and L2, SPR read-out of light-chain tags; competitor Design 13 L1
[20] = biological target: Design 28 L1: D3H44 light chain F116A_S131K_V133G_S176F_T178A (humanized); assay: light chain competition assay: heavy chain co-expressed with L1 and L2, SPR read-out of light-chain tags; competitor Design 28 L2
[21] = biological target: Design 28 L2: D3H44 light chain F118W_V133S_S176A_T180E (humanized); assay: light chain competition assay: heavy chain co-expressed with L1 and L2, SPR read-out of light-chain tags; competitor Design 28 L1
[22] = biological target: Design 26 L2: D3H44 light chain F116A_S131K_L135A (humanized); assay: light chain competition assay: heavy chain co-expressed with L1 and L2, SPR read-out of light-chain tags; competitor Design 26 L1
[23] = biological target: Design 26 L1: D3H44 light chain L135W (humanized); assay: light chain competition assay: heavy chain co-expressed with L1 and L2, SPR read-out of light-chain tags; competitor Design 26 L2
[24] = biological target: D3H44 light chain, wild type (Design 12 L2) (humanized); assay: light chain competition assay: heavy chain co-expressed with L1 and L2, SPR read-out of light-chain tags; competitor Design 12 L1
[25] = biological target: Design 12 L1: D3H44 light chain L89R_F98W (humanized); assay: light chain competition assay: heavy chain co-expressed with L1 and L2, SPR read-out of light-chain tags; competitor Design 12 L2 (WT)

## Design 14 H2: D3H44 heavy chain K147E_D148G_Q175D_S183L
[1]
  H2 Readout: 2%
[2]
  H2 Readout: 74%

## Design 30 H2: D3H44 heavy chain L143E_K145T
[3]
  H2 Readout: 1%
[4]
  H2 Readout: 102%

## Design 31 H2: D3H44 heavy chain Q39R_A139W
[5]
  H2 Readout: 1%
[6]
  H2 Readout: 78%

## Design 32 H1: D3H44 heavy chain Q39E
[7]
  H1 Readout: 98%
[8]
  H1 Readout: 1%

## Design 14 H1: D3H44 heavy chain D148G_S181R
[1]
  H1 Readout: 84%
[2]
  H1 Readout: 1%

## Design 15 H2: D3H44 heavy chain K147T_Q175D_S183L
[9]
  H2 Readout: 83%
[10]
  H2 Readout: 24%

## Design 11 H2-L2 heterodimer (D3H44 heavy F174V_P175S_S188G, light S176L) (Fab)
[11]
  Kd: 0.04 nM

## Design 31 H1: D3H44 heavy chain Q39D_A139G_V190A
[5]
  H1 Readout: 106%
[6]
  H1 Readout: 1%

## Design 11 H2: D3H44 heavy chain F174V_P175S_S188G
[12]
  H2 Readout: 1%
[13]
  H2 Readout: 98%

## Design 29 H1: D3H44 heavy chain L143K_D146G
[14]
  H1 Readout: 1%
[15]
  H1 Readout: 93%

## Design 27 H2: D3H44 heavy chain S186K_S188H_V190G
[16]
  H2 Readout: 85%
[17]
  H2 Readout: 12%

## Design 13 H2: D3H44 heavy chain K145T_Q179D_S188F
[18]
  H2 Readout: 14%
[19]
  H2 Readout: 87%

## Design 15 H2-L2 heterodimer (D3H44 heavy K147T_Q175D_S183L, light Q160K_T178R) (Fab)
[11]
  Kd: 0.071 nM

## Design 15 H1-L1 heterodimer (D3H44 heavy D146G_Q175R, light Q124E_Q160E_T178D) (Fab)
[11]
  Kd: 0.082 nM

## Design 32 H2: D3H44 heavy chain Q39R
[7]
  H2 Readout: 1%
[8]
  H2 Readout: 93%

## Design 13 H1: D3H44 heavy chain L143A_D144G_Q179R
[18]
  H1 Readout: 104%
[19]
  H1 Readout: 1%

## Design 31 H1-L1 heterodimer (D3H44 heavy Q39D_A139G_V190A, light Q38R_L135W) (Fab)
[11]
  Kd: 0.025 nM

## Design 28 H1: D3H44 heavy chain A139V_K145L_Q179E_S188G_V190S
[20]
  H1 Readout: 85%
[21]
  H1 Readout: 4%

## Design 27 H1: D3H44 heavy chain A139I_K145T_D146G_Q179E_S188G_V190S
[16]
  H1 Readout: 1%
[17]
  H1 Readout: 67%

## Design 29 H2: D3H44 heavy chain L143E_K145T
[14]
  H2 Readout: 102%
[15]
  H2 Readout: 1%

## Design 28 H2: D3H44 heavy chain A139W_S186K_S188A
[20]
  H2 Readout: 1%
[21]
  H2 Readout: 94%

## Wild-type D3H44 heterodimer (anti-tissue factor Fab, one heavy chain and one light chain)
[11]
  Kd: 0.052 nM

## Design 15 H1: D3H44 heavy chain D146G_Q175R
[9]
  H1 Readout: 1%
[10]
  H1 Readout: 93%

## Design 30 H2-L2 heterodimer (D3H44 heavy L143E_K145T, light Q160K_T178R) (Fab)
[11]
  Kd: 0.06 nM

## Design 26 H2: D3H44 heavy chain A139W_K145Y_Q175E
[22]
  H2 Readout: 106%
[23]
  H2 Readout: 1%

## Design 26 H1: D3H44 heavy chain A139G_V190A
[22]
  H1 Readout: 1%
[23]
  H1 Readout: 92%

## Design 13 H1-L1 heterodimer (D3H44 heavy L143A_D144G_Q179R, light Q124E_V133W_Q160E_T180E) (Fab)
[11]
  Kd: 0.087 nM

## Design 30 H1: D3H44 heavy chain D146G_Q179K
[3]
  H1 Readout: 96%
[4]
  H1 Readout: 1%

## Design 11 H1: D3H44 heavy chain S188L_V190Y
[12]
  H1 Readout: 83%
[13]
  H1 Readout: 24%

## D3H44 heavy chain, wild type (Design 12 H2)
[24]
  H2 Readout: 88%
[25]
  H2 Readout: 15%

## Design 13 H2-L2 heterodimer (D3H44 heavy K145T_Q179D_S188F, light V133A_Q160K_T178R) (Fab)
[11]
  Kd: 0.086 nM

## Design 30 H1-L1 heterodimer (D3H44 heavy D146G_Q179K, light Q124E_Q160E_T180E) (Fab)
[11]
  Kd: 0.024 nM

## Design 11 H1-L1 heterodimer (D3H44 heavy S188L_V190Y, light V133S) (Fab)
[11]
  Kd: 0.043 nM

## Design 12 H1: D3H44 heavy chain V37E_F100D
[24]
  H1 Readout: 10%
[25]
  H1 Readout: 99%
